Measurements reported in patent US6534281.

Key:
human proinsulin (human) [1] = molecular target: human proinsulin (human) (UniProt P01308); test: sandwich immunoassay, one-step, against C-peptide calibration; proinsulin 200 ng/ml; CPT-3-F11 on particles, labeled antibody PEP-001
human proinsulin (human) [2] = molecular target: human proinsulin (human) (UniProt P01308); test: sandwich immunoassay, two-step, against C-peptide calibration; proinsulin 50 ng/ml; CPT-3-F11 on particles, labeled antibody 9101
human C-peptide (human) [3] = test: ELISA on immobilized C-peptide; labeled antibody 0.0 ug/ml (blank), free C-peptide 10 ug/ml
[4] = molecular target: modified C-peptide (human C-peptide having Arg-Arg bound to its N-terminal and Lys-Arg bound to its C-terminal) (human); test: sandwich immunoassay, one-step, against C-peptide calibration; modified C-peptide 5 ng/ml; CPT-3F-11 on particles, labeled antibody 9101
human proinsulin (human) [5] = molecular target: human proinsulin (human) (UniProt P01308); test: sandwich immunoassay, two-step, against C-peptide calibration; proinsulin 200 ng/ml; CPT-3-F11 on particles, labeled antibody 9101
human proinsulin (human) [6] = molecular target: human proinsulin (human) (UniProt P01308); test: sandwich immunoassay, two-step; proinsulin 200 ng/ml; CPT-3F-11 on particles, labeled antibody 9101
human C-peptide (human) [7] = test: ELISA on immobilized C-peptide; labeled antibody 0.1 ug/ml, free C-peptide 1.0 ug/ml
human proinsulin (human) [8] = molecular target: human proinsulin (human) (UniProt P01308); test: sandwich immunoassay, one-step, against C-peptide calibration; proinsulin 50 ng/ml; CPT-3-F11 on particles, labeled antibody 9101
human proinsulin (human) [9] = molecular target: human proinsulin (human) (UniProt P01308); test: sandwich immunoassay, one-step, against C-peptide calibration; proinsulin 200 ng/ml; CPT-3-F11 on particles, labeled antibody 9101
human C-peptide (human) [10] = test: ELISA on immobilized C-peptide; labeled antibody 0.0 ug/ml (blank), free C-peptide 0 ug/ml
human proinsulin (human) [11] = molecular target: human proinsulin (human) (UniProt P01308); test: sandwich immunoassay, one-step, against C-peptide calibration; proinsulin 400 ng/ml; CPT-3-F11 on particles, labeled antibody PEP-001

Chain of UniProt P01308 (P01308 25-110): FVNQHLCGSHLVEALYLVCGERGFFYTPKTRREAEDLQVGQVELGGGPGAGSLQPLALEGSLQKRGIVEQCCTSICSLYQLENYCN
Chain of human C-peptide (human) (peptide, as listed by the source): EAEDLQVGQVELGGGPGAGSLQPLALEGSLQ
Chain of modified C-peptide (human C-peptide having Arg-Arg bound to its N-terminal and Lys-Arg bound to its C-terminal) (human) (peptide, as listed by the source): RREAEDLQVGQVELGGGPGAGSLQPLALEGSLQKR

anti-human C-peptide monoclonal antibody CPT-3-F11 (Dako)
Cross-reactivity (%) to Human Proinsulin (human proinsulin (human) [1]): > 30%
Cross-reactivity (%) to Human Proinsulin (human proinsulin (human) [2]): 0.4%
Absorbance (absorbance at 405 nm) (human C-peptide (human) [3]): 0
Binding Ratio (human C-peptide (human) [3]): 0%
Cross-reactivity (%) to Modified C-peptide [4]: 0.5%
Cross-reactivity (%) to Human Proinsulin (human proinsulin (human) [5]): 1.2%
counts of chemiluminescence (human proinsulin (human) [6]): 42500 counts
Absorbance (absorbance at 405 nm) (human C-peptide (human) [7]): 0.026
Binding Ratio (human C-peptide (human) [7]): 1.7%
Cross-reactivity (%) to Human Proinsulin (human proinsulin (human) [8]): 0.9%
Cross-reactivity (%) to Human Proinsulin (human proinsulin (human) [9]): 2.6%
Absorbance (absorbance at 405 nm) (human C-peptide (human) [10]): 0
Binding Ratio (human C-peptide (human) [10]): 0%
Cross-reactivity (%) to Human Proinsulin (human proinsulin (human) [11]): > 15%
